Measurements published in patent US7153676B1, “Transacylases of the paclitaxel biosynthetic pathway” (priority 1999, dated 2006).
“Also recorded” adds a separate entry of the source.

Tests used:
[1] = target: T1, taxane-2α-O-benzoyl transferase (TAX2) (Taxus cuspidata, UniProt Q9FPW3); assay: recombinant TAX2 benzoyl transferase screening assay (radio-HPLC); format: biochemical; settings: UV and radioactivity profiles
T1 construct: Full-length insert fragments of the relevant plasmids are excised and subcloned in-frame into the expression vector pCWori+; made in house; host or cells: E. coli JM109 (pCWori+)
T1 sequence (Q9FPW3 1-440): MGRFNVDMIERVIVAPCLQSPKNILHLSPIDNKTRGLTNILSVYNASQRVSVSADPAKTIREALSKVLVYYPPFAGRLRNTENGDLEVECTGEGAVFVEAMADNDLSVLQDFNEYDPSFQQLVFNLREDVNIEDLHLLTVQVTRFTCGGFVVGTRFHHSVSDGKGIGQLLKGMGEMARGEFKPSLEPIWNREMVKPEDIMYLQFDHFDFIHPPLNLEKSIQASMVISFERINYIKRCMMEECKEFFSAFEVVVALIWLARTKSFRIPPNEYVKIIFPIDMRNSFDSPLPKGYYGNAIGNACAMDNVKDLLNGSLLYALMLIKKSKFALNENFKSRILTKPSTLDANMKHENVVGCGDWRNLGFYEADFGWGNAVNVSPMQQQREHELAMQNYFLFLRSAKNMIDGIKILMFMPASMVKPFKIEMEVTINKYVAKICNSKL
Method: TAX2, TAX5, TAX7, TAX9, TAX10, TAX 12, and TAX13 ([…]) were expressed in bacteria using the following protocol. For a typical preparation of the recombinant enzyme, each of the E. coli cultures transformed with a pCWori+ vector harboring a putative transacylase gene was grown overnight at 37° C. in 5 mL Luria-Bertani medium supplemented with 50 μg ampicillin/mL. 1 mL of these cultures was individually added to separate aliquots of 100 mL Terrific Broth culture medium (6 g bacto-tryptone (Difco Laboratories, Spark, Md.), 12 g yeast extract (EM Science, Cherryhill, N.J.), and 2 mL glycerol in 500 mL water) and grown at 37° C. After 3 hours, the medium was supplemented with 1 mM isopropyl-β-D-thiogalactopyranoside for induction and 50 μg ampicillin/mL, and the cultures were grown at 25° C. […]
A 1-mL aliquot of each soluble enzyme preparation was incubated with 2-debenzoyl-7,13-diacetylbaccatin III (500 μM) and [7-^14C]benzoyl coenzyme A (500 μM, 9.3 μCi) for 1.5 hours at 31° C. […] The resulting crude products of the assay were dissolved in acetonitrile (50 μL) and analyzed by radio-HPLC using a Perkin Elmer HPLC ISS 200 coupled to a PACKARD RADIOMATIC™ radioactivity detector series A100 (Canberra, Ind., Meriden, Conn.) (see FIGS. 12A and 12B for a representative chromatogram). […]

TAX2 gene product = target: T2, TAX2 gene product (Taxus cuspidata, UniProt Q9FPW3); assay: recombinant TAX2 expressed in E. coli JM109, acetyl transacylase assay; format: biochemical; settings: [3H]taxadienol and acetyl CoA co-substrates
T2 construct: Full-length insert fragments of the relevant plasmids are excised and subcloned in-frame into the expression vector pCWori+; made in house; host or cells: E. coli JM109 (pCWori+)
T2 sequence (Q9FPW3 1-440): T1 sequence (Q9FPW3 1-440)
Method: To determine the identity of the putative taxadienol acetyl transacylase, TAX1 (SEQ ID NO: 28), TAX2 (SEQ ID NO: 26), and TAX6 (SEQ ID NO: 45) were subcloned in-frame into the expression vector pCWori+ (Barnes, Methods Enzymol. 272:3–14, 1996) and expressed in E. coli JM109 cells. The transformed bacteria were cultured and induced with isopropyl β-D-thiogalactoside (IPTG), and cell-free extracts were prepared and evaluated for taxadienol acetyl transacylase activity using the previously developed assay procedures (Walker et al., Arch. Biochem. Biophys. 364:273–279, 1999). Clone TAX1 (corresponding directly to Probe 1) expressed high levels of taxadienol acetyl transacylase activity (20% conversion of substrate to product), as determined by radiochemical analysis; the product of this recombinant enzyme was confirmed as taxadienyl-5α-yl acetate by gas chromatography-mass spectrometry (GC-MS) (FIGS. 5A–5G). […] Neither of the recombinant proteins expressed from TAX1 (SEQ ID NO: 28) or TAX2 (SEQ ID NO: 26) was capable of acetylating the advanced paclitaxel precursor 10-deacetyl baccatin III to baccatin III. […]

B1: TAX2: full-length clone, SEQ ID NO: 25/26; taxane-2α-O-benzoyl transferase (protein, listed as Taxus cuspidata)
chain: T1 sequence (Q9FPW3 1-440)
- product from 2-debenzoyl-7,13-diacetylbaccatin III and [7-14C]benzoyl CoA [1]: coincide exactly with the retention time of authentic 7,13-diacetylbaccatin III
- taxadienol acetyl transacylase activity (TAX2 gene product): did not express taxadienol acetyl transacylase activity; also recorded: inactive
